In the nanobody polyreactivity screen of Harvey et al. (2022):

Experiment: yeast display, Sf9 membrane polyspecificity reagent, FACS + sequencing; frameworks hold sequencing errors
Outline: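 Polyreactivity labels are assigned by the sorting gate from which each nanobody was recovered. The gates were low and high (top ~1%), set on anti-HA fluorescence for expression and streptavidin fluorescence for reagent binding. Before sorting, galactose-induced (36–48 hours) yeast display cells were stained for 1 hour at 4 °C with 10% biotinylated, detergent-solubilized Sf9 membrane reagent.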

Sequence | polyreactivity (PSR sort gate)
QVQLVESGGGLVQAGGSLRLSCAASGGIFTGYAMGWYRQAPGKERELVAAISSGGTTYYADSVKGRFTISRDNAKITVHLQMNSLKPEDTAVYYCAAGFYLRAVWMDYWGQGTQVTVSS | high polyreactivity
QLQLVESGGGLVQAGGSLRLSCAASGLIFYDNMGWYRQAPGKERELVAAISSSGGSTSYADSVKGRFTISRDNAKNTVYLHMNSLKPEDTAVYYCAADSYPAYLGFVGFDYWGQGTQVTVSS | low polyreactivity
QVQLVESGGGLVQAGGSLRLSCAASGRTFVGYAMGWYRQAPGKERELVAAITSGGGTYYADSVKGRFTISRDNAKNTVYLQMNSLKPEDTAVYYCNRASRRGYYYPYNYWGQGTQVTVSS | high polyreactivity
QVQLVESGGGLVQAGGSLRLSCAASGFTFRWYAMGWYRQAPGKERELVAAITSSGGSTYYADSVKGRFTISRDNAKNTVYLQMNSLKPEDTAVYYCNKRFLDLSYHDYDYWGQGTQVTVSS | high polyreactivity
QVQLVESGGGLVQAGGSLRLSCAASGRIPVNAMGWYRQAPVKERELVAAISVSGGSTNYADSVKGRFTISRDNAKNTVYLQMNSLKPEDTAVYYCNADPDWWYPYNYWGQGTQVTLSS | low polyreactivity
QVQLVESGGGLVQAGGSLRLSCAASGRTFDRDAKGWYRQAPGKERELVAVIRFIGGSTYYAYSVKGRFTISRDNAKNTVFLQMNSLKQEDTAVYDCATRGPIWGQRYYKGYYWGQGTQVTVSS | low polyreactivity
QVQLVESGGGLVQAGGSLRLSCAASGRIFSYYAMGWYRQAPGKERELVAAINSDGSTDYADSVKGRFTISRDNAKNTVYLQMNSLKPEDTAVYYCAKVWSLGPTGFRAYVRVWYYYWGVGTQVTVSS | low polyreactivity
QVQLVESGGGIVQAGGSLRLSCAASGNTFYAYTMGWYRPAPGKERELVAAISSDGSTNYAVSVKGSVTISRDHAKNTVYLQLNCLKPEDTAVYYCAKYTSSRFEYDYWGHGTQVTVSS | low polyreactivity
QVQHVESAGGLVQAGGILRLSCHASGFTIHAYVLGWYRQAPGKERELVAAISSGGSTYYADSVKGRFTISRDNAKNTGYLQMNSLKPEATSVYYCAAAYPYYWHLDFWGQGSQVTVSS | low polyreactivity
QVQLVESGGGLVQAGGSLRLSCAASGFTFQWYAMGWYRQAPGKERELVAGITSGASTNYADSVKGRFTISRDNAKNNVYLQMNSLKPEDTAVYYCAAGYKSRYYRNSGYYWGQGTQVTVSS | high polyreactivity
QVQLVESGGGLVQARGSRRLTCAASGRTFSYYAMGWYLHEPGKERELVAAITSSGGRTTYADSVKGRFTISRDNAKNTVYLQMNSLKPEDTAVYYCNVVRWTLKYGYWGQGTQVTVSS | high polyreactivity
QVQLVESGGGLVQAGGSLRLSCAASGRMFKYSDMGWYRQAPGKERALVAGISISGSTSYADSVKGRFTISRDNAKNTVYLQMNSLKPEDTAVYYCAADSRGGYPSLYEYDYWGQGTQETVSS | low polyreactivity
QVQLVESGGGLVQAGGSLRLSCAASGRIFESYAMGWYRQAPGKERELVAAISSGGGTTYYADSVKGRFTISRDNAKNTVYLQMNSLKPEDTAVYYCAADALSDEYDYWGQGTQVTVSS | low polyreactivity
QVQLVESGGGLVHAGGSLRLSCAASGSTFLSYAMGWYRQAPGKEREFVAAISWSDVNTYYADSVKGRFTISRDNAKNTVYLQMISLKPEDTAVYYCAAYYPSHDYSGFWSDTYEYWGQGTQVTVSS | low polyreactivity
QVQLVESGGGLVQAGGSLRLSCAASGIIFAGNAMGWYRQAPGKERELVAVITSGGSTYYADSVKGRFTISRDNAKNTVYLQMNSLKPEDTAVYYCNKVYYAYRVSLYRYGYWGQGTQVTVSS | high polyreactivity
QVQLVESGGGLVQAGGSLRLSCAASGRIFYQNAMGWYRQAPGKERELVADISSGGSTYYADSVKGRFTISRDNAKNTVYLQMNSLKPEDTAVYYCAAEGQLFDLYDYWGQGTQVTVSS | low polyreactivity
QVQLVESGGGLVQAGGSLRLSCAASGFIFRWYTLGWYRQAPGKERELVAAISRSGGSTYYADSVKGRFTISRDNAKNTVYLQMNSLKPEDTAVYYCNAYDHPIYRLDYWGQGTQVTVSS | high polyreactivity
QVQLVESGGGLVQAGGSLRLSCAASGITFYYYAMGWYRQAPGKERELVAAISVSGGSTYYADSVKGRFTISRDNAKNTVYLQMNSLKPEDTAVYYCAAADLLSYTYPEYDYWGQGTQVTVSS | low polyreactivity
QVQLVESGGGLVHAGGSLRLSCAASGRTFYGNAMGWYRQAPGKEREFVAGISWRGGRTYYADSVKGRFTISRDNAKNTVYLQMHSLKPEDTGVYYCNARYIYTRPRPRNYWGLGTQVTVSS | high polyreactivity
QVQLVESGGGLVQAGGSLRLSCAASGRIFDRNAMGWSRQAPGKERELVAAITRSGGRTYYADSVKGRFTISRDNAKYTVYLQMNSLKPEDTAVYYCNRGYPRSVVHYNSWGQGTQVTVSS | high polyreactivity
QVQLVESGGGLVQAGGSLRLSCAASGFIFWDKAMGWYRQAPGKEWELVAAISKSGTRTYYADSVKGRFTISRDTAKKTVDLQMNSLKPEETAVYYCAAEGSGYDYYYWGQGTQVTVSS | high polyreactivity
QVQLVESVGGLVQAGGSLRLSCAASGRTFMYNAMGWYRQAPGKERELVAAISWSGGSTYYADSVKGRFTISRDNAKNTVYFLMNSLKPEDTAVYYCAATGRRSGFYFWGQGTQVTVSS | high polyreactivity

Sequence | polyreactivity (PSR sort gate)
QVQLEESGGGLVQAGGSLRLSCAASGRIFGINALGWYRQAPGQERALVAAISRSGSRTYYADSVKGRFTISRDNAMNTVYLQMNSLKPEDTALYYCNARHQRFYAQPGDYWGQGTQVTVSS | high polyreactivity
QVQLGESGGGLVQAGGSLRLSCAASGGIINYYAMGWYRQAPGKEWELVAAITSAGSTYADSVKGRFTISRDNAKNTVYLQMNSLKPDDSAVYYCNAVGFVLKVGYYLIGYAKWYDYWGQGTHVTVSS | low polyreactivity
QVQLVETGGGLVQAGGSLRLSCAGSGHIFPTNARGWYRQSPWKARELVAVISESVGSTYYADSVKGRFTISRDNSKNTVYLQMNSLKPEDTAVYYCAKQSLYPSLDADYDYWGQGTQVNVSS | low polyreactivity
QVQLVESGGGLVQAGGSLRLSCAASGRIFGKYAMGWYRQAPGKERELVAAISRSGASTYYADSVKGRFTISRDNAKNTVYLQMNSLKPEDTAVYYCAAVPPYNYRVRVYYWGQGTQVTVSS | high polyreactivity
QVQLVESGGGLVQAGGSLRLSCAASGSTFNGYAMGWYRQAPGKERELVAAISKRGGSTYYADSVKGRFTISRDNEKNTVYLQMNSLKPEDTAVYYCAARNPTQYLMDYWGQGTQVTVSS | high polyreactivity
QLQLVESGGGLVQAGGSLRLSCAPSGSTFESYAMGWYRQSPGKERELVAAISSSGGSTYYADSVKGRFTISRENAMNTVYLEMYRLIPEDTAVYYCAAPTFSRYYYWGQGTQVTVSS | high polyreactivity
EVQLVESGGGLVQAGGSLRLSCAAYGSTFSTYAMGWYRQAPGKERELVAAISFGGGSTYADSVKGRFTISRDNAKNTVYLQMNSLKPEDTAVYYCNTDLYLYGWYPRDVQQYAGGDYWGQGTQVTVSS | low polyreactivity
QVQLEESGGGLVQAVGSLRLTCAASGLIFKSNAMGWYRQAPGKERQLVAAITRTGGSTYYADSVKGRFTISRDNAKNTVYLQMNSLKPEDTAVYYCAVLYDRYGRAYYYWGQGTQVTVSS | high polyreactivity
QVQLVESGGGLVQAGGSLRLSCAASGRIFQNNAMGWYRQAPGKERELVAAINIIDGVTYYADSVKGRFTISRDNAKNTVYLQMNSLKPEDTAVYYCNAVRRAHHRKYNYWGQGSQVTVSS | low polyreactivity
QVQLVESGGGLVQAGGSLRLSCAASGITFRWYTMGWYRQAPGKERELVAAITSSGARTYYADSVKGRFTISRDNAKNTVYLQMNSLKPEDTAVYYCAATQTRFAAKDEYWGQGTQVTVSS | high polyreactivity
QVQLVESGGGLVQAGGSHRLSCAASGSTFTTNAMGWYRQAPGKERELVAAISRRGGSTYYADSVKGRFTISRDNAKNTVYLQMNSLKPEDTAVYYCNAVRAEYEFDYWGQGTQVTVSS | high polyreactivity
QVQLVESGGGLVQAGGSLRLSCAASGSTFVINAMGWYRQAPGKERELVARISSSGGRTYYADSVKGRFTISRDNAKNTVYLQMNSLKPEDTAVYYCAKRGYLFLRGSVRVGYNYWGHGTQVTVSS | low polyreactivity
QDQLVESGGGLVQAGGSLRLSCAATGRTFYFYTMGWYRQAPGKERELVATAITSGGSTNYADSVKGRFTISRDNAKNTVYLQMNSLKPEDTAVYYCAATLYWGWVFSYTSFDYWGQGTQVTVSS | low polyreactivity
QVQLVESGGGLVQAGGSLRLSCAASGIIFYYYAMGWYRPAPGKERELVAAITSSGVRTYYADSVKGRFTLSRDTAKNTVYLQMNSLKPEDTAVYYCAASVSWPRVSQRARYGYYYWGQGTQVTVSS | high polyreactivity
QVQLVESGGGLVQAGGSLRLSCAASGSIFGKNVMGWYRQAPGKDRELVAAITSGASTYYADSVKGRFTISRDNAKNTDYLQMNSLKPDDTAVYYCAARRWRKYYSGYNYWGHGTQVTVSS | high polyreactivity
QVQLVESGGGLVQSGGSLLLSCAASGFTFGRYAMAWYRQAPGKERELVAAIRRSGGSTYYADSVKGRFTISRDNAKNTVYLQMNSRKPEDTAVFYCAAVRWWTYGNYDYWGQGTQVTVSS | high polyreactivity
QVQLVESGGGLVQAGGTLRLSCAASGSTFGVYAMGWYRQAPGKERELVAAIDNSGDDTYYADSVKGRFTISRDNAKNTVYLQMNSLKPEDTAVYYCAADFWDGRSTLNFWGQGTQVTVSS | high polyreactivity
QVQLVESGAGLVQAGGSLRLSCAASGSIFDYYAMGLYRQAPGKERELVAVITRGGSTYYADSVKGRFTISRDNAKNTDSLQMNSLKPEDTAVYYCNASRGYKSRYEYWGQGTQVTVSS | high polyreactivity
QVQLVESGGGLVQAGGSLRLSCAASGFTFSPYAMGWYRQAPGKERELVAAISSSGGSTYYADSVKGRFTISRDNAKNTVYLQMNSLKPEDTAVYYCATQGTRRPGKFYYWGQGTQVTVSS | high polyreactivity
QVQLVESGGGLVQAGGSLRLSCAASGSTFRGYAMGWYRQAPGKERELVATITSGGSTKYADSVKGRFTISRDNAKNTVYLQMNSLKPEDTAVYYCNAVPRSWSPYSHWFDYWGQGTQVTVSS | low polyreactivity
QVQLVESGGGLVQAGGSLRLSCAASGRTFFPYVMGWYRQAPGKERELVAAISNSGTSTYYADSVKGRFTISRDNAKNTVYLQMNSLKPEDTAVYYCAARRYVGLYYWGQGTQVTVSS | high polyreactivity
